Results taken from patent publication US20160264653A1 (published 2016).
Substitutions are numbered along the chain they refer to.

Assays:
human ephrin-A4-His [1] = target: T1, human ephrin-A4-His (UniProt P52798 26-170); assay: Biacore
T1 chain: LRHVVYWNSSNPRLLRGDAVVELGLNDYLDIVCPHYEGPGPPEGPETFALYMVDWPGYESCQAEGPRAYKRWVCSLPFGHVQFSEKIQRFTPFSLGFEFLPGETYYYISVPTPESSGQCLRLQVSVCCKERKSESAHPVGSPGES

human ephrin-A4-His [2] = target: T1, human ephrin-A4-His; assay: label-free interaction analysis
[3] = target: T2, mouse ephrin-A4 homolog (recombinantly expressed, monomeric) (mouse, UniProt O08542 26-175); assay: label-free interaction analysis
T2 chain: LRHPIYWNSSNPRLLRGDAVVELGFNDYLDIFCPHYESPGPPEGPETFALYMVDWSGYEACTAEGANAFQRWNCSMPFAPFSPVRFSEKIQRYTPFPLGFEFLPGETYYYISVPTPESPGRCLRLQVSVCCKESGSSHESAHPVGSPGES

human ephrin-A4-His [4] = target: T1, human ephrin-A4-His; assay: ForteBIO
hEFNA4-Fc [5] = target: T3, hEFNA4-Fc (human, UniProt P01857 100-330 = IgG part); assay: cell surface binding inhibition (flow cytometry); 0.1 ug/ml hEphrinA4-Fc
mEFNA4-Fc [6] = target: T4, mEFNA4-Fc (mouse;human, UniProt O08542 26-176; P01857 100-330 = IgG part); assay: cell surface binding inhibition (flow cytometry); 0.1 ug/ml mEphrinA4-Fc
hEFNA4-Fc [7] = target: T3, hEFNA4-Fc; assay: cell surface binding inhibition (flow cytometry); 1.0 ug/ml hEphrinA4-Fc
mEFNA4-Fc [8] = target: T4, mEFNA4-Fc; assay: cell surface binding inhibition (flow cytometry); 1.0 ug/ml mEphrinA4-Fc

B1: SC4.31 (antibody, V domains shown)
VH: QVQLQQPGAELVRPGASVKLSCKASGYTFTRDWMHWIKQRPGQGLDWIGTIHPYDSETHYNQNFKDKATLTVDKSSSTAYMQLSSLTSEDSAVYYCVTFIKTMVDTYYYAMDYWGQGTSVTVSS
VL: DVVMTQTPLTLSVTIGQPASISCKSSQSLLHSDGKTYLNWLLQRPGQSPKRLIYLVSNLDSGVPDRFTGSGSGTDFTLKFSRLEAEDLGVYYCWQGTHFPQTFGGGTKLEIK
Human ephrin-A4-His [1]
  Kd: 11 nM

B2: hSC4.15 (antibody, V domains shown)
VH: EVQLVESGGGLVKPGGSLRLSCAASGFTFSTYGMSWVRQAPGKGLEWVATISSGGTYTYYPDSVKGRFKISRDNAKNSLYLQMNSLRAEDTAVYYCTRHDPNDGYYFLFAYWGQGTLVTVSS
VL: EIVLTQSPGTLSLSPGERATLSCKASQSVGNNVAWYQQKPGQAPRLLIYYASNRYTGIPDRFSGSGSGTDFTLTISRLEPEDFAVYYCQQHYSSPLTFGAGTKLEIK
Human ephrin-A4-His [2]
  Kd: 4.8 nM
[3]
  Kd: 3.4 nM

B3: SC4.5 (antibody, V domains shown)
VH: QVQLKQSGPGLVAPSQSLSITCTVSGFSLTTYGVDWVRQSPGKGLEWLGVIWGGGSTNYNSALKSRLSISKDNSKSQVFLKMNSLQTDDTAMYYCASDWAYWGQGTLVTVSA
VL: DIVMTQSQKFMSTSVGDRVTVTCKASQNVGTNVAWFQQKSGQSPKPLIHSASYRYSGVPDRFTGSGSGTDFTLTITNVQSEDLVAYFCQQYKRYPYTFGGGTKLEIKR
Human ephrin-A4-His [1]
  Kd: 0.3 nM

B4: SC4.2 (antibody, V domains shown)
VH: QVQLQQSGAELVRPGTSVTLSCKASGYTFTDYEMHWVKQTPVLGLEWIGAFDPETGNTVYNQKFKGKATLTADKSPNTAYMELISLTSEDSAVYYCARGYPAWFGYWGQGTLVTVSA
VL: DVVMTQIPLSLPVTLGDQASISCRSSQSLAHTNGNTYLHWYLQKPGQSPKLLIYKVSNRFSGVPDRFSGSGSGTDFTLKISRVEAEDLGVYFCSQDTHVPPTFGGGTKLEMK
Human ephrin-A4-His [4]
  Kd: 20 nM

B5: E15.3 Ab (antibody, V domains shown)
VH: EVQVVESGGDLVKPGGSLKLSCAASGFTFSTYGMSWVRQTPDKRLEWVATISSGGTYTYYPDSVKGRFKISRDNAKDTLYLQMSSLKSEDTAMYYCTRHDPNDGYYFLFAYWGQGTLVIVSA
VL: SIGRTQIPKFLPVSAGDRVTMTCKASQSVGNNVAWYQQKAGQSPKLLIYYASNRYTGVPDRFTGSGSGTDFTFTISSVQVEDLAVYFCQQHYSSPLTFGAGTKLELK
hEFNA4-Fc [5]
  IC50: 1.14 µg/mL
mEFNA4-Fc [6]
  IC50: 2.09 µg/mL
hEFNA4-Fc [7]
  IC50: 20.1 µg/mL
mEFNA4-Fc [8]
  IC50: 16.7 µg/mL

B6: SC4.15 (Murine mAb) (antibody, V domains shown)
VH: B5 VH
VL: B5 VL
Human ephrin-A4-His [2]
  Kd: 2.7 nM

B7: SC4.15 (antibody, V domains shown)
VH: B5 VH
VL: B5 VL
Human ephrin-A4-His [1]
  Kd: 4.8 nM

B8: hSC4.22 (antibody, V domains shown)
VH: QVQLVQSGAEVKKPGASVKVSCKASGYTFTGYYIHWVRQAPGQGLEWMGWIYPGNFNTKYNERFKGRVTMTTDTSTSTAYMELRSLRSDDTAVYYCAREDGSPYYAMDYWGQGTSVTVSS
VL: DIVMTQTPLSLSVTPGQPASISCRSSQSLVHSNGNTFLYWYLQKPGQSPQLLIYRVSNRFSGVPDRFSGSGSGTDFTLKISRVEAEDVGVYYCFQATHVPWTFGGGTKVEIK
Human ephrin-A4-His [2]
  Kd: 3.8 nM
[3]
  Kd: > 100 nM

B9: SC4.22 (Murine mAb) (antibody, V domains shown)
VH: QIQLQQSGPELVKPGASVKISCKASGYTFTGYYIHWVKQRPGQGLEWIGWIYPGNFNTKYNERFKGMATLTVDTSSSTAYMQLSSLTSEDSAVYLCAREDGSPYYAMDYWGQGTSVTVSS
VL: B8 VL with I2V, S12P, T14S, P15L, Q17D, P18Q, Q50K, V88L, Y92F, V109L
Human ephrin-A4-His [2]
  Kd: 3.1 nM

B10: SC4.22 (antibody, V domains shown)
VH: B9 VH
VL: B8 VL with I2V, S12P, T14S, P15L, Q17D, P18Q, Q50K, V88L, Y92F, V109L
Human ephrin-A4-His [1]
  Kd: 3.1 nM

B11: hSC4.47 (antibody, V domains shown)
VH: QVQLVQSGAEVKKPGASVKVSCKASGYTFTYFYMNWVRQAPGQGLEWVGQINPNNGGTAYAQKFQGRVTMTRDTSTSTVYMELSSLRSEDTAVYYCARWVGTHYFDYWGQGTTLTVSS
VL: EIVLTQSPATLSLSPGERATLSCRASQSVSSSSYTYIHWYQQKPGQAPRLLINFASNLESGIPARFSGSGSGTDFTLTISSLEPEDFAVYYCQHSWEIPPTFGGGTKLEIK
[3]
  Kd: > 100 nM

B12: E47.3 Ab (antibody, V domains shown)
VH: EVQLQQSGPELVKPGASVKISCTASGYTFTYFYMNWVKQSQGKSLEWVGQINPNNGGTAYNHKFRGKTTLTVDKSSNTAFMELRSLTSEDSAVYFCARWVGTHYFDYWGQGTTLTVSS
VL: DIVLTQSPASLPVSLGQRATISCRASQSVSSSSYTYIHWYQQKPGQPPKLLINFASNLESGVPARFSVSGSGTDFTLNIHPVEGEDTATYYCQHSWEIPPTFGGGTKLEIK
hEFNA4-Fc [5]
  IC50: ~0.124 µg/mL
mEFNA4-Fc [6]
  IC50: ~0.0183 µg/mL
hEFNA4-Fc [7]
  IC50: 1.54 µg/mL
mEFNA4-Fc [8]
  IC50: ~0.0217 µg/mL
